Source: publication PMC2217413 (The Journal of General Physiology, 2004)

B1: GST-fusion protein of TRPV1 amino acids 149–222 (domain or fragment)
chain: KDPETGKTCLLKAMLNLHNGQNDTIALLLDVARKTDSLKQFVNASYTDSYYKGQTALHIAIERRNMTLVTLLVE
B2: GST-fusion protein of TRPV1 amino acids 189–250 (domain or fragment)
chain: FVNASYTDSYYKGQTALHIAIERRNMTLVTLLVENGADVQAAANGDFFKKTKGRPGFYFGEL

Target: calmodulin immobilized on agarose beads (CaM-agarose) (UniProt P62157 1-149)
Assay: pull-down

**Q.** Does B1 bind?
**A.** binds

**Q.** Does B2 bind?
**A.** binds

**Q.** Does FVNASYTDSYYKGQTALHIAIERRNMTLVTLLVE (domain or fragment) [GST-fusion protein of TRPV1 amino acids 189–222] bind?
**A.** binds
